In patent publication US20260184748A1 (University of Pennsylvania, published 2026):
Where no end group is shown, it is not given here.

Experiments:
Assay in all cases: cell-based or functional assay
[1] = molecular target: T1, BDKRB2 (UniProt P30411 1-391, limits assumed)
T1 sequence (looked up): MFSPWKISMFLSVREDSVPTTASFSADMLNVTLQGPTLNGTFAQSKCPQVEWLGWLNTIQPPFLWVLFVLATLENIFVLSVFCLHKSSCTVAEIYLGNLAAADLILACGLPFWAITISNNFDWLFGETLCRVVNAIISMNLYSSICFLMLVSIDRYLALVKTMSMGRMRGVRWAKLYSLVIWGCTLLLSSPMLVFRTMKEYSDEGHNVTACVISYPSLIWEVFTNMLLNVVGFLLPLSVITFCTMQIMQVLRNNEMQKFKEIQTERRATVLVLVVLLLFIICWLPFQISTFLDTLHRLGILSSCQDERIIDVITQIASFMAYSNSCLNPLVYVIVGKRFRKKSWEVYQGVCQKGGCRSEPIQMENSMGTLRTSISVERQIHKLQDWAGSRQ

[2] = molecular target: T2, CCR9 (UniProt P51686 1-369, limits assumed)
T2 sequence (looked up): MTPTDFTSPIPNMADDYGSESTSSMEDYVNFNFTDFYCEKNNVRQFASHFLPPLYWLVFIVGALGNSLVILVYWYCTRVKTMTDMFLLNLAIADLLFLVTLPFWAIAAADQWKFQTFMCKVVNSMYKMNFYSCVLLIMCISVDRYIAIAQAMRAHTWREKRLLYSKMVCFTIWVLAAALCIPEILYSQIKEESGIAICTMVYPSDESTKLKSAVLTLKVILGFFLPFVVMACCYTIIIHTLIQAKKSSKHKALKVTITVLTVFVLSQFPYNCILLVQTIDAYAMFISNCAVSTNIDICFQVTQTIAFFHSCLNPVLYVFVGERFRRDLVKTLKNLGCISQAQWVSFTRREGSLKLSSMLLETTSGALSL

[3] = molecular target: GPR35 (UniProt Q9HC97 1-309, limits assumed)
[4] = molecular target: CALCRL-RAMP1 (UniProt Q16602 23-461; O60894 27-148)
[5] = molecular target: T3, ADRA2A (UniProt P08913 1-465)
T3 sequence (looked up): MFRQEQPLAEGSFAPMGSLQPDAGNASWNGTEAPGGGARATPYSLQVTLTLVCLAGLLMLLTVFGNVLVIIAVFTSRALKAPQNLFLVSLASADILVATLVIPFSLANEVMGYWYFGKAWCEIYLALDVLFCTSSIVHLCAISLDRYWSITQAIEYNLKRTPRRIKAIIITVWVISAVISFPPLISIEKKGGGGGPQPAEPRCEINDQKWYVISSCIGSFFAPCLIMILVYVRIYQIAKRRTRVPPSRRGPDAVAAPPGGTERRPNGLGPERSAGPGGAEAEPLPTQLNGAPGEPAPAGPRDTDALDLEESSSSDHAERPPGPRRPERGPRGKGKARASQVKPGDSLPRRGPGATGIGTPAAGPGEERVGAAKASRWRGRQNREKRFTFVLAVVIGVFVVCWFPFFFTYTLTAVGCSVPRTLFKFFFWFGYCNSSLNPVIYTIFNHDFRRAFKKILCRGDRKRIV

[6] = molecular target: KISS1R (UniProt Q969F8 1-398)
[7] = molecular target: T4, AGTR1 (UniProt P30556 1-359)
T4 sequence (looked up): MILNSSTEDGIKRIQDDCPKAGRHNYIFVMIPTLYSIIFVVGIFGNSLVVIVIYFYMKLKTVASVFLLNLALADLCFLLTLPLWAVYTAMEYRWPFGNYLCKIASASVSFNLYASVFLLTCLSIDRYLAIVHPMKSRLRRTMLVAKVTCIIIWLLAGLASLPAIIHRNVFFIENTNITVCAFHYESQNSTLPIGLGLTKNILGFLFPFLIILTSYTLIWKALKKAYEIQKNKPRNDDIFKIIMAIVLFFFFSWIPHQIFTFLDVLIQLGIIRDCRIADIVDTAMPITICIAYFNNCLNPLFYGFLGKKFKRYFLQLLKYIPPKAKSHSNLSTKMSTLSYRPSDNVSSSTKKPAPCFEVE

[8] = molecular target: DRD2S (UniProt P14416-2 1-414)
[9] = molecular target: T5, HTR2C (UniProt P28335 33-458, limits assumed)
T5 sequence (looked up): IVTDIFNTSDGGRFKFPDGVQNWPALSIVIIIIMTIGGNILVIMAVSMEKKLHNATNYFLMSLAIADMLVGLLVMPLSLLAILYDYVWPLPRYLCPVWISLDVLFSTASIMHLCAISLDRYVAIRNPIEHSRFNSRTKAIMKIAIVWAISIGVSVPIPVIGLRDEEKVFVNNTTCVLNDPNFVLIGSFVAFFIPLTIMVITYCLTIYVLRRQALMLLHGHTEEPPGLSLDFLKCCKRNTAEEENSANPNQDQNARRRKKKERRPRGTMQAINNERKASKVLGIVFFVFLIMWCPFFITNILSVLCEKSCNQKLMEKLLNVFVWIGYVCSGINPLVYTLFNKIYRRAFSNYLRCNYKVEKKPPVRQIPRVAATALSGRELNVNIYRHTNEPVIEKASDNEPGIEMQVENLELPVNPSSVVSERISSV

[10] = molecular target: FFAR1 (UniProt O14842 1-300)
[11] = molecular target: OPRL1 (UniProt P41146 1-370)
[12] = molecular target: T6, GALR1 (UniProt P47211 1-349)
T6 sequence (looked up): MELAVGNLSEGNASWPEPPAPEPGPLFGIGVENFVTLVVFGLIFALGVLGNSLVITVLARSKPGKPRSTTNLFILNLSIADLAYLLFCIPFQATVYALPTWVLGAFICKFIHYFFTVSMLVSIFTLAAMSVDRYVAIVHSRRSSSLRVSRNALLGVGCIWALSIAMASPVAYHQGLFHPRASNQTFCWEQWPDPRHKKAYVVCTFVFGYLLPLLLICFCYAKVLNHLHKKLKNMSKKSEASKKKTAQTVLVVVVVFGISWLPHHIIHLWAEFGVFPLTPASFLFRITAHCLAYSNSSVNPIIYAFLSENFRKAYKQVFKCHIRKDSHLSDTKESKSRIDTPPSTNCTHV

[13] = molecular target: PTGER4 (UniProt P35408 1-488)
Chain of PTGER4 (P35408 whole entry): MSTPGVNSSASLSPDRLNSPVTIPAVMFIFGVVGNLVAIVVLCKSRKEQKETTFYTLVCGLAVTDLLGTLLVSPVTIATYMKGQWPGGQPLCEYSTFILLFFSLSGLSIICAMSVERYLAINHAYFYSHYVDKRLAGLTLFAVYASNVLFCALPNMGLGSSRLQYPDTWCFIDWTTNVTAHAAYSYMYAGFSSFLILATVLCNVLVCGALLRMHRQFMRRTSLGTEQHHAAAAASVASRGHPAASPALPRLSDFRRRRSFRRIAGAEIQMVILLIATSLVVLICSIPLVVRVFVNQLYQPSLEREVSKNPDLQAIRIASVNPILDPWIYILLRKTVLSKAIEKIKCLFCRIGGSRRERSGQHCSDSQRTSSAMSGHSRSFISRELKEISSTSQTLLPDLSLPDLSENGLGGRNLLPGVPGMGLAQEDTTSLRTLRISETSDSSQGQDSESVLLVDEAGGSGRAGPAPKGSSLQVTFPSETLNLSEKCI

Chain of DRD2S (P14416 other isoform, or with tags, fused parts or gaps limits assumed): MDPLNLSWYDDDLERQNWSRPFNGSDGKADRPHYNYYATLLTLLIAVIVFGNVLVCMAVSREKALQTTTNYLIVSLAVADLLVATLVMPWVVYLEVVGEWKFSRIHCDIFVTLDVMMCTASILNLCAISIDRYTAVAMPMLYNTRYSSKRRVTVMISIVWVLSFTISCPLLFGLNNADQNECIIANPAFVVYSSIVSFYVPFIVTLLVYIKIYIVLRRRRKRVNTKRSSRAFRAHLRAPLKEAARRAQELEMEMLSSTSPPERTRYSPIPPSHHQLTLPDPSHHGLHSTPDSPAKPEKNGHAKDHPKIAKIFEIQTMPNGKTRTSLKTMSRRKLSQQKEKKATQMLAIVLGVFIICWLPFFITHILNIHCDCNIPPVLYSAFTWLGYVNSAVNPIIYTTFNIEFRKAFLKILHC
Chain of FFAR1 (O14842 whole entry): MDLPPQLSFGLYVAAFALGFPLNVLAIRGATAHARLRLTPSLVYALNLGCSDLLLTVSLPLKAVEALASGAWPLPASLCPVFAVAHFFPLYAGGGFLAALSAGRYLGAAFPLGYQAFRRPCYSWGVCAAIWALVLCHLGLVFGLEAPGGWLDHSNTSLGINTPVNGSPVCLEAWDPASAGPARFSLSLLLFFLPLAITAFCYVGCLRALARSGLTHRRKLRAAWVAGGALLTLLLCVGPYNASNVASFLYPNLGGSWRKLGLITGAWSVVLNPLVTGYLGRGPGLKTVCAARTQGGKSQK
Chain of KISS1R (Q969F8 whole entry): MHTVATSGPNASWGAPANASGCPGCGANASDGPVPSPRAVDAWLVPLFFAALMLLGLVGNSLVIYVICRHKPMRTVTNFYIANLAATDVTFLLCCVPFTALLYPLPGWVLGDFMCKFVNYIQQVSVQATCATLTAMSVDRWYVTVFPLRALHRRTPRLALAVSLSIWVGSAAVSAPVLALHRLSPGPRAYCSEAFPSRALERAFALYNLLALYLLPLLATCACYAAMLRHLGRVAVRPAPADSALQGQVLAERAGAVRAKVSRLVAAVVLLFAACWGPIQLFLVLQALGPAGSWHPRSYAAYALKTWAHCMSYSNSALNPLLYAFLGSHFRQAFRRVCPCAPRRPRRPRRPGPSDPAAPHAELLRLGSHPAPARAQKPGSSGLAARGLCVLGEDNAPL
Chain of GPR35 (Q9HC97 whole entry): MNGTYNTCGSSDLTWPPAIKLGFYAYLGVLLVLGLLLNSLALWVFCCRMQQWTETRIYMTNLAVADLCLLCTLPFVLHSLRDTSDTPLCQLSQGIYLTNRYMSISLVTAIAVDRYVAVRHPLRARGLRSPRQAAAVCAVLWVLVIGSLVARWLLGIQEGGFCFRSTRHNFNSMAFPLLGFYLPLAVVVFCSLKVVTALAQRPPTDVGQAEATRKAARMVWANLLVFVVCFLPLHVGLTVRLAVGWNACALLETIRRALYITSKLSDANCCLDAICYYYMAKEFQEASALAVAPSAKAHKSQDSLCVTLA
Chain of CALCRL-RAMP1 (Q16602 23-461 limits assumed, chain 1 of 2): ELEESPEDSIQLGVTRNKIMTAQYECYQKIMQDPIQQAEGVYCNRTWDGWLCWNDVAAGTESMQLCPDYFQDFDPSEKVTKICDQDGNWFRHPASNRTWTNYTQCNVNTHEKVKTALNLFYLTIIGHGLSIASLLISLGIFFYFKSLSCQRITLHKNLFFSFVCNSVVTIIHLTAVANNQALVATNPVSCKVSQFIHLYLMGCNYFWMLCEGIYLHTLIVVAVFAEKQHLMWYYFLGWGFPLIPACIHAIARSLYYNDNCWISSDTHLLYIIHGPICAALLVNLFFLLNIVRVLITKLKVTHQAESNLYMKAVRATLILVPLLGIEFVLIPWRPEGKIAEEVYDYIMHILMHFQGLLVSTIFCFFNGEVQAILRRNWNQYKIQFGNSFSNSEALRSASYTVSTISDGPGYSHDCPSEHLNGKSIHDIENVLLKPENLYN
Chain of CALCRL-RAMP1 (O60894 27-148 limits assumed, chain 2 of 2): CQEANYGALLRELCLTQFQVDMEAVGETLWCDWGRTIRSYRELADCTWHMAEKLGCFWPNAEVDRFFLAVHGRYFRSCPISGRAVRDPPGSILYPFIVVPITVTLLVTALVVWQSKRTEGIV
Chain of OPRL1 (P41146 whole entry): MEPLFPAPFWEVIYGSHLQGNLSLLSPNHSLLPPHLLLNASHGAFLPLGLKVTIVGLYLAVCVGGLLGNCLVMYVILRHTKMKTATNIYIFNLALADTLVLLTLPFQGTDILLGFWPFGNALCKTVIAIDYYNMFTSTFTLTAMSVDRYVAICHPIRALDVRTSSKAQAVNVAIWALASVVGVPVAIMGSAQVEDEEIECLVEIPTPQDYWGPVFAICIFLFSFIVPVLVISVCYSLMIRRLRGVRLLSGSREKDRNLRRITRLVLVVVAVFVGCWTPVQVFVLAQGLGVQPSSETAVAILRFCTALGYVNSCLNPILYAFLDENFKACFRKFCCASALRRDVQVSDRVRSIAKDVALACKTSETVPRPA

B1: octadecaneuropeptide (ODN) (peptide)
peptide: QATVGDVNTDRPGLLDLK
modifications: also: synthesised on Rink amide resin, C-terminal amide not given here outright
% Activity, arrestin, antagonist mode, 2.5 uM [1]: -1.7% | % Activity, arrestin, antagonist mode, 2.5 uM [2]: -10.1% | % Activity, arrestin, antagonist mode, 2.5 uM [3]: -12.2% | % Activity, arrestin, antagonist mode, 2.5 uM [4]: -19% | % Activity, arrestin, antagonist mode, 2.5 uM [5]: -27.2% | % Activity, arrestin, antagonist mode, 2.5 uM [6]: 13.2% | % Activity, arrestin, antagonist mode, 2.5 uM [7]: -8.5% | % Activity, arrestin, antagonist mode, 2.5 uM [8]: -13.4% | % Activity, arrestin, antagonist mode, 2.5 uM [9]: 2.2% | % Activity, arrestin, antagonist mode, 2.5 uM [10]: -3.9% | % Activity, arrestin, antagonist mode, 2.5 uM [11]: -5.6% | % Activity, arrestin, antagonist mode, 2.5 uM [12]: -22.5% | % Activity, arrestin, antagonist mode, 2.5 uM [13]: -15.1%
